Test results from patent US20250049896A1 (Regeneron, published 2025).

Target: T1, Hmm-hTFRC (REGN2431), monomeric human transferrin receptor ectodomain with N-terminal hexahistidine-myc-myc … (human, UniProt P02786 89-760)
T1 construct: also called hmm.hTfR(C89-F763); His-myc-myc-hTFRC ecto
Experiment: blocking ELISA, supernatant; Hmm-hTFRC binding to immobilized human holo-Tf
Method: In the blocking assay, the anti-human Transferrin goat IgG polyclonal antibody (anti-hTf pAb) was passively absorbed at a concentration of 2 micrograms/mL in PBS on a 96-well microtiter plate overnight at 4° C. […] To the same plate, human holo-Tf was then added at a concentration of 1 micrograms/mL in PBS+0.5% BSA for 2 hours at room temperature. […] After a 1-hour incubation, the mixtures were transferred to the human holo-Tf microtiter plates. […] The plates were developed using TMB substrate solution according to the manufacturer's recommended procedure and absorbance at 450 nm was measured on a Victor™ Multilabel Plate Reader.
The ability of the anti-TfR antibody to block human TFRC binding to human holo-Tf was evaluated using an ELISA-based blocking assay.

T1 sequence (P02786 other isoform, or with tags, fused parts or gaps): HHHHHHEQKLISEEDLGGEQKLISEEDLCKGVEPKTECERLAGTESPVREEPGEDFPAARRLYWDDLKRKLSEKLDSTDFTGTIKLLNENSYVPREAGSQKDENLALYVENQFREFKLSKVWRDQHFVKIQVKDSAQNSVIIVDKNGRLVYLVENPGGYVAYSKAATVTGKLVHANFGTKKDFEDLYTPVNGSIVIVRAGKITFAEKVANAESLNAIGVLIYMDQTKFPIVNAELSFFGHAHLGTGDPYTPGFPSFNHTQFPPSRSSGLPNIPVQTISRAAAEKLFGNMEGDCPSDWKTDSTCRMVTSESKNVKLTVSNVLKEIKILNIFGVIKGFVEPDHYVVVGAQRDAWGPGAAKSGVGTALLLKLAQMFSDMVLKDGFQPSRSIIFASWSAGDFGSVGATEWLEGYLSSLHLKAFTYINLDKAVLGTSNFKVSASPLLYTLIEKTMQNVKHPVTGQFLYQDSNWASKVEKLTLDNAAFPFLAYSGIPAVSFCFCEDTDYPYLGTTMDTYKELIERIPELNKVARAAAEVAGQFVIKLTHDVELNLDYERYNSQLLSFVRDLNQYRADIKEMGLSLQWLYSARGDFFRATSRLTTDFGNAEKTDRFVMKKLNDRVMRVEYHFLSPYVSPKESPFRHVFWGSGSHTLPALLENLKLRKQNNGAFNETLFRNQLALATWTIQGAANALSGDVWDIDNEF

% Blocking [%]	Binder
11	69261 Fab (Fab, V domains shown, CHO supernatant) VH: QVQLVESGGGLVKPGGSLRLSCAASGFTFSVYYMNWIRQAPGKGLEWVSYISSSGSTIYYADSVKGRFTISRDNAKNSLYLQMNSLRAEDTAVYYCGREGYSGTYSYYGMDVWGQGTTVTVSS VL: not shown
14	69263 Fab (Fab, V domains shown, CHO supernatant) VH: EVQLVESGGGLVQPGRSLRLSCAVSGFTFDDYAMHWVRQAPGKGLEWVSGISWNSGTRGYADSVKGRFTISRDNAKNSLYLQMNSLRGEDTALYYCVKDITISPNYYGMDVWGQGTTVTVSS VL: DIQMTQSPSSLSASVGDRVTITCRASQDISHYSAWYQQKPGKLPNLLIYAASTLQSGVPSRFSGSGSGTDFSLTTSSLQPEDVATYYCQKYNSVPLTFGGGTKVEIKR
4	69263 scFv (VK-VH) (scFv, CHO supernatant; Vk-3xG4S-Vh) scFv: DIQMTQSPSSLSASVGDRVTITCRASQDISHYSAWYQQKPGKLPNLLIYAASTLQSGVPSRFSGSGSGTDFSLTTSSLQPEDVATYYCQKYNSVPLTFGGGTKVEIKGGGGSGGGGSGGGGSEVQLVESGGGLVQPGRSLRLSCAVSGFTFDDYAMHWVRQAPGKGLEWVSGISWNSGTRGYADSVKGRFTISRDNAKNSLYLQMNSLRGEDTALYYCVKDITISPNYYGMDVWGQGTTVTVSS
14	69263 scFv (VH-VK) (scFv) EVQLVESGGGLVQPGRSLRLSCAVSGFTFDDYAMHWVRQAPGKGLEWVSGISWNSGTRGYADSVKGRFTISRDNAKNSLYLQMNSLRGEDTALYYCVKDITISPNYYGMDVWGQGTTVTVSSDIQMTQSPSSLSASVGDRVTITCRASQDISHYSAWYQQKPGKLPNLLIYAASTLQSGVPSRFSGSGSGTDFSLTTSSLQPEDVATYYCQKYNSVPLTFGGGTKVEIK
3	69305 Fab (Fab, V domains shown, CHO supernatant) VH: QVQLVESGGGVVQPGRSLRLSCAASGFTFSSYGMHWVRQAPGKGLEWVAVIWYDGSNKYYADSVKGRFTISRDISKNTLYLQMNSLRAEDTAVYYCAGQLDLFFDYWGQGTLVTVSS VL: DIQMTQSPSSLSASVGDRVTITCRASQSIDRYLNWYRQKPGKAPKLLIYTTSSLQSGVPSRFSGSGSGTDFTLTLSSLQPEDFATYYCQQSYSPPLTFGGGTKVEIKR
5	69305 scFv (VK-VH) (scFv, CHO supernatant; Vk-3xG4S-Vh) scFv: DIQMTQSPSSLSASVGDRVTITCRASQSIDRYLNWYRQKPGKAPKLLIYTTSSLQSGVPSRFSGSGSGTDFTLTLSSLQPEDFATYYCQQSYSPPLTFGGGTKVEIKGGGGSGGGGSGGGGSQVQLVESGGGVVQPGRSLRLSCAASGFTFSSYGMHWVRQAPGKGLEWVAVIWYDGSNKYYADSVKGRFTISRDISKNTLYLQMNSLRAEDTAVYYCAGQLDLFFDYWGQGTLVTVSS
3	69305 scFv (VH-VK) (scFv) QVQLVESGGGVVQPGRSLRLSCAASGFTFSSYGMHWVRQAPGKGLEWVAVIWYDGSNKYYADSVKGRFTISRDISKNTLYLQMNSLRAEDTAVYYCAGQLDLFFDYWGQGTLVTVSSDIQMTQSPSSLSASVGDRVTITCRASQSIDRYLNWYRQKPGKAPKLLIYTTSSLQSGVPSRFSGSGSGTDFTLTLSSLQPEDFATYYCQQSYSPPLTFGGGTKVEIK
8	69329 Fab (Fab, V domains shown, CHO supernatant) VH: EVQLVESGGGLVQPGGSLRLSCAASGFTFSNYWMTWVRQAPGKGLEWVANIKEDGSEKDYVDSVKGRFTISRDNAKNSLYLQMNSLRGEDTAVYYCARDGEQLVDYYYYYVMDVWGQGTTVTVSS VL: DIQMTQSPSSVSASVGDRVTITCRASQGISSWLAWYQQKPGKAPKLLIYAASSLQSGVPSRFSGSGSGTDFTLTISSLQPEDFATYYCQKANSFPYTFGQGTKLEIKR

The next lines start with the binder.

Binder	% Blocking [%]
12834B Fab (Fab, V domains shown, CHO supernatant) VH: QVQLVQSGAEVKKPGASVKVSCKASGYTFTSYGISWVRQAPGQGLEWMGWISVYHGNTNYAQKFQGRVTMTTDTSTSTAYMELRSLRSDDTAVYYCAREGYYDFWSGYYPFDYWGQGTLVTVSS VL: not shown	-2
12835B Fab (Fab, V domains shown, CHO supernatant) VH: EVQLVESGGGLIQPGGSLRLSCEASGFTFRNYEMNWVRQAPGKGLEWVSYISSSGNMKDYAESVKGRFTISRDNVKNSLQLQMNSLRVEDTAVYYCARDEFPYGMDVWGQGTTVTVSS VL: not shown	78
12839B Fab (Fab, V domains shown, CHO supernatant) VH: QVQLVESGGGVVQPGRSLRLSCAASGFPFSNYVMYWVRQAPGKGLEWVALIFFDGKKNYHADSVKGRFTITRDNSKNMLYLQMNSLRPEDAAVYYCAKIHCPNGVCYKGYYGMDVWGQGTTVTVSS VL: not shown	13
12841B Fab (Fab, V domains shown, CHO supernatant; also called H1H12841B) VH: EVQLVESGGGLVQPGGSLRLSCAASGFTFSNYWMNWVRQAPGKGLEWVANIKEDGGKKLYVDSVKGRFTISRDNAKNSLFLQMNSLRAEDTAVYYCAREDTTLVVDYYYYGMDVWGQGTTVTVSS VL: not shown	29
12843B Fab (Fab, V domains shown, CHO supernatant) VH: EVQLVESGGGLVQPGGSLRLSCAASGFTFNIFEMNWVRQAPGKGLEWISYISSRGTTTYYADSVRGRFTISRDNAKNSLYLQMNSLRAEDTAVYYCARDYEATIPFDFWGQGTLVTVSS VL: not shown	10
12844B Fab (Fab, V domains shown, CHO supernatant) VH: EVQLVESGGSVVRPGGSLRLSCEASGFTFDDYGMSWVRQDPGKGLEWVSGINWNGDRTNYADSVKGRFIISRDNAKNSVYLQMNSLRAEDSALYHCARDQGLGVAATLDYWGQGTLVTVSS VL: not shown	20
12845B Fab (Fab, V domains shown, CHO supernatant) VH: EVQLVESGGGLVQPGGSLRLSCAASGFTVSNYEMNWVRQAPGKGLEWVSYISSSTSNIYYADSVKGRFTISRDNAENSLYLQMNSLRVEDTAVYYCVRDGIVVVPVGRGYYYYGLDVWGQGTTVTVSS VL: not shown	11
12847B Fab (Fab, V domains shown, CHO supernatant) VH: EVQLVESGGGLVQPGRSLRLSCAASGFTFDDYAMNWVRQAPGKGLEWVSGISWSSGSMDYADSVKGRFTISRDNAKNSLYLQMNSLRTEDTALYYCAKAREVGDYYGMDVWGQGTTVTVSS VL: not shown	3
12848B Fab (Fab, V domains shown, CHO supernatant) VH: EVQLVESGGGLVQPGRSLTLSCAASGFTFDNFGMHWVRQGPGKGLEWVSGLTWNSGVIGYADSVKGRFTISRDNAKNSLYLQMNSLRPEDTALYYCAKDIRNYGPFDYWGQGTLVTVSS VL: not shown	13
31863B Fab (Fab, V domains shown, CHO supernatant) VH: EVQLVESGGGLVQPGGSLRLSCAASGFTFNSYAMTWVRQAPGKGLEWVSFIGGSTGNTYYAGSVKGRFTISSDNSKKTLYLQMNSLRAEDTAVYYCAKGGAARRMEYFQHWGQGTLVTVSS VL: DIQMTQSPSSLSASIGDRVTITCRASQGISNYLAWYQQKPGKVPKLLIYAASTLQSGVPSRFSGSGSGTDFTLTISSLQPEDVATYYCQNHNSVPLTFGGGTKVEIKR	24
31863B scFv (VK-VH) (scFv, CHO supernatant; Vk-3xG4S-Vh) scFv: DIQMTQSPSSLSASIGDRVTITCRASQGISNYLAWYQQKPGKVPKLLIYAASTLQSGVPSRFSGSGSGTDFTLTISSLQPEDVATYYCQNHNSVPLTFGGGTKVEIKGGGGSGGGGSGGGGSEVQLVESGGGLVQPGGSLRLSCAASGFTFNSYAMTWVRQAPGKGLEWVSFIGGSTGNTYYAGSVKGRFTISSDNSKKTLYLQMNSLRAEDTAVYYCAKGGAARRMEYFQHWGQGTLVTVSS	7
31863B scFv (VH-VK) (scFv) EVQLVESGGGLVQPGGSLRLSCAASGFTFNSYAMTWVRQAPGKGLEWVSFIGGSTGNTYYAGSVKGRFTISSDNSKKTLYLQMNSLRAEDTAVYYCAKGGAARRMEYFQHWGQGTLVTVSSDIQMTQSPSSLSASIGDRVTITCRASQGISNYLAWYQQKPGKVPKLLIYAASTLQSGVPSRFSGSGSGTDFTLTISSLQPEDVATYYCQNHNSVPLTFGGGTKVEIK	13
31874B Fab (Fab, V domains shown, CHO supernatant) VH: EVQLVESGGGLVQPGGSLRLSCAASGFAFSSYAMTWVRQAPGKGLEWVSVISGTGGSTYYADSVKGRFTISRDNSKNTLYLQMNSLRAEDTAVYYCAKGGAARRMEYFQYWGQGTLVTVSS VL: DIQMTQSPSSLSASVGDRVTITCRASQGISNYLAWYQQKPGKVPNLLIYAASTLQSGVPSRFSGSGSGTDFTLTISSLQPEDVATYYCQKYNSAPLTFGGGTKVEIKR	16
31874B scFv (VK-VH) (scFv, CHO supernatant; Vk-3xG4S-Vh) scFv: DIQMTQSPSSLSASVGDRVTITCRASQGISNYLAWYQQKPGKVPNLLIYAASTLQSGVPSRFSGSGSGTDFTLTISSLQPEDVATYYCQKYNSAPLTFGGGTKVEIKGGGGSGGGGSGGGGSEVQLVESGGGLVQPGGSLRLSCAASGFAFSSYAMTWVRQAPGKGLEWVSVISGTGGSTYYADSVKGRFTISRDNSKNTLYLQMNSLRAEDTAVYYCAKGGAARRMEYFQYWGQGTLVTVSS	-1
31874B scFv (VH-VK) (scFv) EVQLVESGGGLVQPGGSLRLSCAASGFAFSSYAMTWVRQAPGKGLEWVSVISGTGGSTYYADSVKGRFTISRDNSKNTLYLQMNSLRAEDTAVYYCAKGGAARRMEYFQYWGQGTLVTVSSDIQMTQSPSSLSASVGDRVTITCRASQGISNYLAWYQQKPGKVPNLLIYAASTLQSGVPSRFSGSGSGTDFTLTISSLQPEDVATYYCQKYNSAPLTFGGGTKVEIK	14
69307 Fab (Fab, V domains shown, CHO supernatant) VH: EVQLVESGGGLVQPGGSLRLSCTASGFTFSNYWMTWVRQAPGKGLEWVANIKEDGSEKEYVDSVKGRFTISRDNAKNSLYLQMNSLRGEDTAVYYCARDGEQLVDYYYYYVMDVWGQGTTVTVSS VL: DIQMTQSPSSVSASVGDRVTITCRASQGISSWLAWYQQKPGKAPKLLIYAASSLQSGVPSRFSGSGSGTDFTLTISSLQPEDFATYYCQKADSLPYAFGQGTKLEIKR	12
